Patent publication US12723105 (dated 2026)

Columns and labels:
CD47-Fc (R&D systems) = CD47-Fc (R&D systems) (UniProt Q08722 19-139); assay: competitive ELISA vs SIRPα
[1] = biological target: T1, CD47 natively expressed on tumor cell surface (Jurkat, HL60 cells) (human, UniProt Q08722 19-323); assay: flow cytometry; HL-60 cells
[2] = biological target: T1, CD47 natively expressed on tumor cell …; assay: competitive flow cytometry vs SIRPα-Fc; Jurkat cells
[3] = biological target: human CD47 (R & D systems) (UniProt Q08722 19-139); assay: flow cytometry, CD47-overexpressing cells; HCAb
[4] = biological target: PD-L1 on PD-L1-expressing APC/CHO-K1 cells (UniProt Q9NZQ7 19-290); assay: flow cytometry, PD-L1 CHO cells; HCAb
PD-L1 on PD-L1-expressing APC/CHO-K1 cells, sequence (Q9NZQ7 19-290): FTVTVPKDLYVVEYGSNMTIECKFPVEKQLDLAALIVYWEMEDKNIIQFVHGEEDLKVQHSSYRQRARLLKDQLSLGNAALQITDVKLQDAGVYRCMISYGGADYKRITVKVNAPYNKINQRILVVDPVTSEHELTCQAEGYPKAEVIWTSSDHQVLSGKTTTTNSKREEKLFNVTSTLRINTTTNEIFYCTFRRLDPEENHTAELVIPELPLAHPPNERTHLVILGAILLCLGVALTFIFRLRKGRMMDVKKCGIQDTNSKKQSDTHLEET

Human serum albumin = Human serum albumin (UniProt P02768 25-609); assay: Octet BLI

B1: multi-specific molecule 3321 (CD16F1-L1-hHS10-L1-hA09-10-3-L3-hA09-10-4-L1-H33-14-L3-H33-14) (other)
chain: EVQLVESGGGLVQPGGSLRLSCAVSGSLFSARVMGWYRQAPGKQRELVAAITSGVRTDYADSVKGRFTISRDNAKRAVYLQMNSLKPEDTAVYYCNVNLYNTGNYWGQGTQVTVSSGGGGSGGGSEVQLVESGGGLVQPGGSLRLSCAASGSTDSAYRMGWFRQAPGKEREFVSAINWSDGRTYYADSVKGRFTISRDNSKNTLYLQMNSLRAEDTAVYYCAADPDSRLYYTVPQNYDYWGQGTLVTVSSGGGGSGGGSEVQLVESGGGLVQPGGSLRLSCAASGGGRTFSNYALGWFRQAPGKEREFVAAISRSGGNINYADSVKGRFTISRDNFKNTVYLQMSSLRAEDTAVYYCAAHYLLLPSYISTSTNMYNYWGQGTQVTVSSAAAQVQLVESGGGLVQPGGSLRLSCAASGGGRTFSNYALGWFRQAPGKEREFVAAISRSGGNINYADSVKGRFTISRDNAKNTVYLQMSSLRAEDTAVYYCAAHYLLLPSYISTSTNMYNYWGQGTQVTVSSGGGGSGGGSQVQLVESGGGLVQPGGSLRLSCAASGRTSLILAMAWWRQAPGKEREFAGRIWWNNDMTRYSDSVKGRFTISRDNAKNTVYLQMSSLRAEDTAVYYCEADLIGGSRGWGQGTLVTVSSAAAQVQLVESGGGLVQPGGSLRLSCAASGRTSLILAMAWWRQAPGKEREFAGRIWWNNDMTRYSDSVKGRFTISRDNAKNTVYLQMSSLRAEDTAVYYCEADLIGGSRGWGQGTLVTVSS
An IC50 (CD47-Fc (R&D systems)) of 0.267 nM, an EC50 [1] of 0.182 nM and an IC50 [2] of 0.935 nM were found for B1 in this work.

B2: A09-10 (antibody, V domains shown)
VH: QVQLVESGGGLVQAGGSLRLSCAASGGGRTFSNYALGWFRQAPGKEREFVAAISRSGGNINYADSAKGRFTISRDNFKNTTYLQMSSLKPEDTAVYYCAAHYLLLPSYISTSTNMYNYWGQGTQVTVSS
An EC50 [3] of 0.36 nM was found for B2 in this work.

B3: multi-specific molecule 1511 (CD16F1-L1-hHS10-L1-hA09-10-2-L3-A09-10-L1-hPL16-L3-hPL16) (bispecific antibody)
chain: EVQLVESGGGLVQPGGSLRLSCAVSGSLFSARVMGWYRQAPGKQRELVAAITSGVRTDYADSVKGRFTISRDNAKRAVYLQMNSLKPEDTAVYYCNVNLYNTGNYWGQGTQVTVSSGGGGSGGGSEVQLVESGGGLVQPGGSLRLSCAASGSTDSAYRMGWFRQAPGKEREFVSAINWSDGRTYYADSVKGRFTISRDNSKNTLYLQMNSLRAEDTAVYYCAADPDSRLYYTVPQNYDYWGQGTLVTVSSGGGGSGGGSEVQLVESGGGLVQPGGSLRLSCAASGGGRTFSNYALGWFRQAPGKEREFVAAISRSGGNINYADSVKGRFTISRDNFKNTTYLQMSSLEPEDTAVYYCAAHYLLLPSYISTSTNMYNYWGQGTQVTVSSAAAQVQLVESGGGLVQAGGSLRLSCAASGGGRTFSNYALGWFRQAPGKEREFVAAISRSGGNINYADSVKGRFTISRDNFKNTTYLQMSSLEPEDTAVYYCAAHYLLLPSYISTSTNMYNYWGQGTQVTVSSGGGGSGGGSEVQLVESGGGLVQPGGSLRLSCAASGGTFLTYSMSWVRQAPGKEREFVSSINWSGYMTYYADSVKGRFTISRDNSKNTLYLQMNSLRAEDTAVYYCAAARTAIAAKRSSEFDYWGQGTQVTVSSAAAEVQLVESGGGLVQPGGSLRLSCAASGGTFLTYSMSWVRQAPGKEREFVSSINWSGYMTYYADSVKGRFTISRDNSKNTLYLQMNSLRAEDTAVYYCAAARTAIAAKRSSEFDYWGQGTQVTVSS
An IC50 (CD47-Fc (R&D systems)) of 0.453 nM, an EC50 [1] of 26.2 nM and an IC50 [2] of 1.28 nM were found for B3 in this work.

B4: PL16 (antibody, V domains shown)
VH: QVQLVESGGGLVQAGGSLRLSCAFSGGTFLTYSLGWFRQGPGKEREFVASINWSGYMTSYVDSVKGRFTISRDNAKNTVYLQMNSLKPEDTALYYCAAARTAIAAKRSSEFDYWGQGAQVTVSS
An EC50 [4] of 1.78 nM was found for B4 in this work.

B5: HS27 (VHH)
VHH: EVQLVESGGGLVQPGGSLRLSCAASGRTFSPYTMGWFRQASGKERESVAATTWTGSRSYYGESVKGRFTISRDSTKNTMSLQMNSLKPEDTAVYYCAAADGAGLYTNRGQYDYWGQGTQVTVSS
A Kd (Human serum albumin) of 1.14 nM was found for B5 in this work.

B6: PL14 (antibody, V domains shown)
VH: EVQLVESGGGLVQAGGSLRLSCAASGSTSGIYDMGWYRQAPGKLREVVGIITSGGTTNYADFAKGRFTISRDNAKNMMYLQMNSLKPEDTAVYYCNIRTRLIIWGQGTQVTVSS
An EC50 [4] of 2.09 nM was found for B6 in this work.
